According to article PMC5896254:
Each block holds one molecule with its values, some of them ahead of it.

Assays:
[1] = biological target: WIPI2 (endogenous, HeLa); assay: GFP-TRAP pull-down, quantified immunoblot; conditions: HeLa cells starved for 1 hr; n = 3; parent: est. 0.10; read off a plot
[2] = biological target: RAB11A (endogenous, HeLa) (UniProt P62491); assay: GFP-TRAP pull-down, quantified immunoblot; conditions: HeLa cells starved for 2 hr; n = 5; parent: est. 1.0; read off a plot
[3] = biological target: T1, recombinant human HIS-RAB11A, P62491; assay: liposome sedimentation assay; conditions: chain shown with the change; in vitro; RAB11A-containing liposomes; n = 4; parent: est. 100; read off a plot
T1 chain: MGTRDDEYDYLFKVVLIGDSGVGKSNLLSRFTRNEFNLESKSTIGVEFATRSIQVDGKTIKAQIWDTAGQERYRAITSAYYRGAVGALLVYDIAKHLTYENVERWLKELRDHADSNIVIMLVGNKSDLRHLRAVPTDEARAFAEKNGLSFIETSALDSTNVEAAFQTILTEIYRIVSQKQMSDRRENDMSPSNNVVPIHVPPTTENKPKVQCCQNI

- response [1]: 0.15 au
Molecule: GFP-RAB11A (from UniProt P62491) Q70L

- response [1]: 0.045 au
Molecule: GFP-RAB11A (from UniProt P62491) S25N

- response [2]: 0.42 au
Molecule: GFP-WIPI2 L115A; E116T

- percent of parent [3]: 43 % WT
B2: WIPI2-FLAG WT L115A; E116T (protein)
chain: MNLASQSGEAGAGQLLFANFNQDNTSLAVGSKSGYKFFSLSSVDKLEQIYECTDTEDVCIVERLFSSSLVAIVSLKAPRKLKVCHFKKGTEICNYSYSNTILAVKLNRQRLIVCATESLYIHNIRDMKVLHTIRETPPNPAGLCALSINNDNCYLAYPGSATIGEVQVFDTINLRAANMIPAHDSPLAALAFDASGTKLATASEKGTVIRVFSIPEGQKLFEFRRGVKRCVSICSLAFSMDGMFLSASSNTETVHIFKLETVKEKPPEEPTTWTGYFGKVLMASTSYLPSQVTEMFNQGRAFATVRLPFCGHKNICSLATIQKIPRLLVGAADGYLYMYNLDPQEGGECALMKQHRLDGSLETTNEILDSASHDCPLVTQTYGAAAGKGTYVPSSPTRLAYTDDLGAVGGACLEDEASALRLDEDSEHPPMILRTD

More lines, now with the values behind:

Molecule: GFP-WIPI2 Y120F; I121E
- response [2]: 0.1 au

B1: WIPI2-FLAG WT R224T; R225T (protein)
chain: MNLASQSGEAGAGQLLFANFNQDNTSLAVGSKSGYKFFSLSSVDKLEQIYECTDTEDVCIVERLFSSSLVAIVSLKAPRKLKVCHFKKGTEICNYSYSNTILAVKLNRQRLIVCLEESLYIHNIRDMKVLHTIRETPPNPAGLCALSINNDNCYLAYPGSATIGEVQVFDTINLRAANMIPAHDSPLAALAFDASGTKLATASEKGTVIRVFSIPEGQKLFEFTTGVKRCVSICSLAFSMDGMFLSASSNTETVHIFKLETVKEKPPEEPTTWTGYFGKVLMASTSYLPSQVTEMFNQGRAFATVRLPFCGHKNICSLATIQKIPRLLVGAADGYLYMYNLDPQEGGECALMKQHRLDGSLETTNEILDSASHDCPLVTQTYGAAAGKGTYVPSSPTRLAYTDDLGAVGGACLEDEASALRLDEDSEHPPMILRTD
- percent of parent [3]: 92 % WT

B3: WIPI2-FLAG WT Y120F; I121E (protein)
chain: MNLASQSGEAGAGQLLFANFNQDNTSLAVGSKSGYKFFSLSSVDKLEQIYECTDTEDVCIVERLFSSSLVAIVSLKAPRKLKVCHFKKGTEICNYSYSNTILAVKLNRQRLIVCLEESLFEHNIRDMKVLHTIRETPPNPAGLCALSINNDNCYLAYPGSATIGEVQVFDTINLRAANMIPAHDSPLAALAFDASGTKLATASEKGTVIRVFSIPEGQKLFEFRRGVKRCVSICSLAFSMDGMFLSASSNTETVHIFKLETVKEKPPEEPTTWTGYFGKVLMASTSYLPSQVTEMFNQGRAFATVRLPFCGHKNICSLATIQKIPRLLVGAADGYLYMYNLDPQEGGECALMKQHRLDGSLETTNEILDSASHDCPLVTQTYGAAAGKGTYVPSSPTRLAYTDDLGAVGGACLEDEASALRLDEDSEHPPMILRTD
- percent of parent [3]: 38 % WT
